Results reported in paper PMC5619814.

Legend:
[1] = biological target: soluble human neonatal Fc receptor (hFcRn) (human) (UniProt P55899); assay: SPR; ProteOn XPR36, GLC chip; rbFcRn (about 1200 RU) or hFcRn (about 1600 RU) immobilised by amine coupling; IgG injected at 8.34-133 nM, 100 μl/min, PBS-T pH 6.0, 25°C; heterogeneous ligand model (two classes of non-interacting sites)
[2] = biological target: soluble rabbit neonatal Fc receptor (rbFcRn), heterodimer of truncated rbFcRn α-chain and rabbit β2-microglobulin (rabbit); assay: as above
[3] = biological target: human IgG1 (Omalizumab) (human); assay: SPR; ProteOn XPR36, GLC chip; rbIgG (about 1900 RU) or hIgG1 (about 2100 RU) immobilised by amine coupling; rbFcRn or hFcRn injected at 37.5-600 nM, 100 μl/min, PBS-T pH 6.0, 25°C; Langmuir 1:1 model
[4] = biological target: soluble rabbit neonatal Fc receptor (rbFcRn), heterodimer of truncated rbFcRn α-chain and rabbit β2-microglobulin (rabbit)

Row | Substance | KD1 (high affinity class of sites, heterogeneous ligand model) [1] [nM] | KD2 (low affinity class of sites, heterogeneous ligand model) [1] [nM] | KD1 (high affinity class of sites, heterogeneous ligand model) [2] [nM] | KD2 (low affinity class of sites, heterogeneous ligand model) [2] [nM] | Kd [3] [nM] | koff [3] [s⁻¹] | kon [3] [M⁻¹ s⁻¹] | FcRn-mediated recycling assay in rabbit peritoneal macrophages: relative fluorescence intensity of Alexa 488-hIgG1 left in the cells after 20 min pulse at pH 6.0 and 30 min chase at pH 7.4 [4] [%]
1 | human IgG2 (Abcam) (antibody) | 5.43 | 34.7 | 7.46 | 106 |  |  |  | 
2 | soluble rabbit neonatal Fc receptor (rbFcRn), heterodimer of truncated rbFcRn α-chain and rabbit β2-microglobulin (complex) |  |  |  |  | 1.19 | 0.00039 | 327000 | 

Continued, values first:

Row | KD1 (high affinity class of sites, heterogeneous ligand model) [1] [nM] | KD2 (low affinity class of sites, heterogeneous ligand model) [1] [nM] | KD1 (high affinity class of sites, heterogeneous ligand model) [2] [nM] | KD2 (low affinity class of sites, heterogeneous ligand model) [2] [nM] | Kd [3] [nM] | koff [3] [s⁻¹] | kon [3] [M⁻¹ s⁻¹] | FcRn-mediated recycling assay in rabbit peritoneal macrophages: relative fluorescence intensity of Alexa 488-hIgG1 left in the cells after 20 min pulse at pH 6.0 and 30 min chase at pH 7.4 [4] [%] | Substance
3 |  |  |  |  | 4.3 | 0.000592 | 138000 |  | soluble human neonatal Fc receptor (hFcRn) (from UniProt P55899 24-297; P61769 21-119) (complex)
4 | 9.99 | 57.2 | 12.9 | 71.9 |  |  |  | 60 | human IgG1 (Omalizumab) (antibody)
5 | 2.36 | 20.2 | 3.86 | 53.5 |  |  |  |  | human IgG4 (Abcam) (antibody)
6 | 6.06 | 17.4 | 2.57 | 59.2 |  |  |  |  | human IgG3 (Abcam) (antibody)
